According to patent publication US20210093667:

Assays:
[1] = system: dPspCas13b-ADAR1DD H133A,H1058A (Prevotella sp. P5-125 / Homo sapiens); test: cell_activity; details: on-target A-to-I RNA editing
[2] = system: dPspCas13b-ADAR2DD(E488Q) (REPAIRv1) H133A,H1058A (Prevotella sp. P5-125 / Homo sapiens); test: cell_activity

**Q.** For “Cluc W85X targeting guide ; Cluc W85X transcript (254 A>G site)”, which activity [1] is on record?
**A.** Its activity is 29 % editing.

**Q.** And the activity ([2]; 10 ng Cas13-ADAR transfected)?
**A.** The activity was 80 % editing.

**Q.** And the activity ([2]; 150 ng Cas13-ADAR transfected)?
**A.** The activity was 83 % editing.

**Q.** And the activity ([2]; on-target A-to-I RNA editing)?
**A.** The activity was 71 % editing.
